The results in this text go back to patent publication CN114031685A (INST MILITARY MEDICINE ACADEMY MILITARY SCIENCES PLA, dated 2022).

Experiment [1] addresses 新冠病毒野生型 S蛋白 (on pseudovirus / live virus) (SARS-CoV-2, UniProt P0DTC2 14-1273). As to the kind of experiment: cell-based or functional assay.
The next experiment concerns the target T1, SARS-CoV-2 NTD蛋白 (SARS-CoV-2, UniProt P0DTC2 14-303).
T1 construct: domain: NTD
Put plainly: ELISA, antigen coated at 2 μg/mL. (In general: An ELISA detects its analyte on a solid surface through an enzyme-linked reagent.)

A further experiment addresses T2, SARS-CoV-2 WT S2蛋白 (SARS-CoV-2, UniProt P0DTC2 686-1213).
T2 construct: domain: S2
Put plainly: ELISA, antigen coated at 2 μg/mL.

B1: 抗SARS-CoV-2全人源单克隆抗体ZW2G10 (antibody, V domains shown)
VH: EVQLVESGGGLVQPGRSLRLSCAASGFTFDDYAMHWVRQAPGKGLEWVSGITWNSGTIGYADSVKGRFIISRDNAKNSLHLQMNSLRVEDTALYYCAKDNSDYSGYYWELENYGMDVWGQGTTVTVSS
VL: QSVLTQPPSVSGAPGQRVTISCTGSSSNIGAGYDVHWYQQLPGTAPKLLIYDNNNRPSGVPDRFSGSKSGTSASLAITGLQAEDEADYYCQSFDSSLSGVVFGGGTRLTVLR
notes: also called 单抗ZW2G10
For B1, in experiment [1], the “假病毒中和 EC50” value was found to be 14.2 ng/mL and the “真病毒中和 EC50 (Vero E6)” value turned out to be 1.08 µg/mL. Also, in the experiment with SARS-CoV-2 NTD蛋白, the binding result is “no binding”. Also, the binding result with SARS-CoV-2 WT S2蛋白 is “no binding”.
